Experiment [1] concerns the target T1, 真核表达的人FGL1重组蛋白 (human FGL1 Leu23-Ile312 with C-terminal 6xHis, expressed in 293F cells) (human, UniProt Q08830 23-312).
T1 construct: also called 真核表达的FGL1蛋白; 真核表达的人FGL1蛋白
T1 sequence: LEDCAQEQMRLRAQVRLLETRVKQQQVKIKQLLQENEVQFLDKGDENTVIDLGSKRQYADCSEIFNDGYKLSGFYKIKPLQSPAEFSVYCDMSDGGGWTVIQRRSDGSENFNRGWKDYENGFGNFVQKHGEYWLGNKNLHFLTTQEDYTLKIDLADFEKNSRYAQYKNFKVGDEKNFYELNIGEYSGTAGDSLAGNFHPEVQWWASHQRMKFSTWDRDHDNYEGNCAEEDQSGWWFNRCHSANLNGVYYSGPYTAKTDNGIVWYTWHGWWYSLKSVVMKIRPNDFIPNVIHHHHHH
Description: indirect ELISA, antigen coated at 0.5 µg/mL, purified antibody 0.5 µg/mL. (In an ELISA, binding on a coated surface is turned into a signal by an enzyme label.)

For experiment [2], the target named is T2, 原核表达的TF-FGL1融合蛋白 (human FGL1 Leu23-Ile312 fused to trigger factor, pCold TF, expressed in E. coli BL21(DE3)) (human).
T2 construct: also called 原核表达的FGL1蛋白; TF-FGL1蛋白
T2 chain: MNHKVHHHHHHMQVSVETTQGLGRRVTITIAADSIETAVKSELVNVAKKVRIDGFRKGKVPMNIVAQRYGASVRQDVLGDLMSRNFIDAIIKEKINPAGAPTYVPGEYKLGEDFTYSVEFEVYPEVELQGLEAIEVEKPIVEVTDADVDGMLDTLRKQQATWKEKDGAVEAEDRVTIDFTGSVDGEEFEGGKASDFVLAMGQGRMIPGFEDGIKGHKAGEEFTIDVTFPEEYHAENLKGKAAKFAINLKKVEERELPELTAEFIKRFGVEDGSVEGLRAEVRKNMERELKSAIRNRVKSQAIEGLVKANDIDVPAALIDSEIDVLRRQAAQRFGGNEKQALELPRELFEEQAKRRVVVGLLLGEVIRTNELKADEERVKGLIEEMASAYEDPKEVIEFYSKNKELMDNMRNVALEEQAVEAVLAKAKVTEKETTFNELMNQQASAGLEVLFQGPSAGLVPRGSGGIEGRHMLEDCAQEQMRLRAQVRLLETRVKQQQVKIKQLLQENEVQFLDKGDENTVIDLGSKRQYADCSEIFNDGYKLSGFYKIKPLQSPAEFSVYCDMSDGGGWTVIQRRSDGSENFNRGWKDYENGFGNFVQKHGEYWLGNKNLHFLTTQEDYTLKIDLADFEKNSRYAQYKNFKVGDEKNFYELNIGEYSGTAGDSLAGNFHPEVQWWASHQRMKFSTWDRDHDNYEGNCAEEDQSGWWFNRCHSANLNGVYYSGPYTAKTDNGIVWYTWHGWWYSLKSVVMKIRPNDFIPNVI
The description is as above.

The target in experiment [3] is T1, 真核表达的人FGL1重组蛋白 (human FGL1 Leu23-Ile312 …). Description: indirect ELISA screen, hybridoma supernatant on coated human FGL1 recombinant protein (0.5 µg/mL).

B1: 克隆号为MJ9-4的杂交瘤细胞(CGMCC No.23016)分泌的抗FGL1单克隆抗体 (antibody, mouse IgG1, kappa, V domains shown)
VH: EVKLQQSGAELAKPGASVKMSCKASGYIFTGGWMHWVKQRPGQGLEWIGYINPSTDGTDYNQKFEDKATLTADKSSSTAYMQLSSLTSEDSAVYYCAREGYYGSSPYFDYWGQGTTLTVSS
VL: DIVITQTPATLSVTPGDSVSLSCRASQSVSNNLHWYQQKSHESPRLLIKYVSQSISGIPSRFSGSGSGTDFTLSINSVETEDFGMYFCQQSNSWPLYTFGGGTKLEIKR
notes: also called MJ9-4分泌的单克隆抗体; 第二单克隆抗体
For B1, the binding result in experiment [1] and in experiment [2] was “binds” each time.

B2: 克隆号为MJ9-1的杂交瘤细胞(CGMCC No.23015)分泌的抗FGL1单克隆抗体 (antibody, mouse IgG1, kappa, V domains shown)
VH: EVQLVESGGGLVKPGGSLKLSCAASGFTFSDGYMYWVRQTPEKRLEWVATISDGGSGTYYPDSVKGRFTISRDNAKNNLYLQMSSLKSEDTAMYYCARAATVTRWFAYWGQGTLVTVSA
VL: DIQMNQSPSSLSASLGDTITITCHASYNINVWLTWYQQKPGNIPKLLIYKASKLHTGVPSRFSGSGSGTGFTLTISSLQPEDIATYYCQQGQSYPLTFGGGTKLEIKR
notes: also called MJ9-1分泌的单克隆抗体; 第一单克隆抗体
In the case of B2, the binding result in experiment [2] and in experiment [3] was “binds” throughout.
